Measured values from patent US20140120095A1 (Boehringer Ingelheim, published 2014).
Values belong to the binder of their own block, whether it stands above or below them.

Tests used:
[1] = target: T1, VEGFB (UniProt P49765-2 22-188, limits assumed); assay: binding ELISA on coated VEGFB (Example 12.8), OD 450 nm
T1 sequence (looked up): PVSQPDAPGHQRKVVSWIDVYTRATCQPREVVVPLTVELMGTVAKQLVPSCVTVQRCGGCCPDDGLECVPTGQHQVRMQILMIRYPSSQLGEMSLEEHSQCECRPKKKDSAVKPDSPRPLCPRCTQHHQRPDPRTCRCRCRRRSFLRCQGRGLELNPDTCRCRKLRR
Experimental: (§1) Binding to VEGFB, VEGFC, VEGFD and PIGF is assessed via a solid phase binding ELISA. […] Wells are blocked with a casein solution (1% in PBS). […] As positive controls serial dilutions of the appropriate receptors are taken along and detected with horseradish peroxidase (HRP)-conjugated goat anti-human IgG, Fc specific antibody (Jackson Immuno Research Laboratories Inc., West Grove, Pa., USA) and a subsequent enzymatic reaction in the presence of the substrate TMB (3,3′,5,5′-tetramentylbenzidine) (Pierce, Rockford, Ill., USA).

[2] = target: T2, VEGFC (UniProt P49767 103-227, limits assumed); assay: binding ELISA on coated VEGFC (Example 12.8), OD 450 nm
T2 sequence (looked up): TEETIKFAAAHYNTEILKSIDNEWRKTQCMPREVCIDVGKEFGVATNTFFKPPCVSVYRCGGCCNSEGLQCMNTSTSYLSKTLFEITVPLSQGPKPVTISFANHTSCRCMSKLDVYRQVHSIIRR
Experimental: as §1

[3] = target: T3, VEGFD (UniProt O43915 93-201, limits assumed); assay: binding ELISA on coated VEGFD (Example 12.8), OD 450 nm
T3 sequence (looked up): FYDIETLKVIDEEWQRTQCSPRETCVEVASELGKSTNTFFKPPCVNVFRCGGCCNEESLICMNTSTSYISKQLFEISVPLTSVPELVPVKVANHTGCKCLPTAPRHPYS
Experimental: as §1

[4] = target: T4, PIGF (UniProt P49763-2 21-149, limits assumed); assay: solid phase binding ELISA on coated PIGF (Example 12.8)
T4 construct: also called placenta growth factor
T4 sequence (looked up): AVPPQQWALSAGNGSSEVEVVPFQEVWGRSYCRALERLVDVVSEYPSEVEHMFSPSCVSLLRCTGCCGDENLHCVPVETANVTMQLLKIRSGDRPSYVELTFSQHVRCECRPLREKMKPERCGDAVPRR
Experimental: as §1

[5] = target: T5, mouse DLL4 expressed on CHO cells (mouse, UniProt Q9JI71 27-686); assay: FMAT competition on CHO-mDLL4 cells; unlabelled rhNotch1-Fc competes with Alexa-647 labelled hNotch1-Fc
T5 construct: whole, on cells; also called mDLL4; CHO-mDLL4

[6] = target: T6, human DLL4 expressed on cells (CHO-hDLL4; HEK293-hDLL4) (human, UniProt Q9NR61 27-685); assay: FMAT competition on CHO-hDLL4 cells; unlabelled rhNotch1-Fc competes with Alexa-647 labelled hNotch1-Fc
T6 construct: full length human DLL4 overexpressed on CHO cells (FMAT, FACS) or HEK293 cells (reporter assay)

[7] = target: T7, recombinant human DLL4 (human, UniProt Q9NR61 25-522); assay: cell-based or functional assay
[8] = target: T8, mouse DLL4 overexpressed on cells (mouse, UniProt Q9JI71 27-686); assay: FMAT, labelled hNotch1-Fc on CHO-mDLL4, periplasmic extract
T8 construct: whole, on cells; also called CHO-mDLL4; CHO-mDII4
Excerpt: (§2) All calculations are based on the FL1_total signal which comprises the average of the fluorescence per well times the number of counts per well.
Target sequence in this assay (Q9JI71 27-686): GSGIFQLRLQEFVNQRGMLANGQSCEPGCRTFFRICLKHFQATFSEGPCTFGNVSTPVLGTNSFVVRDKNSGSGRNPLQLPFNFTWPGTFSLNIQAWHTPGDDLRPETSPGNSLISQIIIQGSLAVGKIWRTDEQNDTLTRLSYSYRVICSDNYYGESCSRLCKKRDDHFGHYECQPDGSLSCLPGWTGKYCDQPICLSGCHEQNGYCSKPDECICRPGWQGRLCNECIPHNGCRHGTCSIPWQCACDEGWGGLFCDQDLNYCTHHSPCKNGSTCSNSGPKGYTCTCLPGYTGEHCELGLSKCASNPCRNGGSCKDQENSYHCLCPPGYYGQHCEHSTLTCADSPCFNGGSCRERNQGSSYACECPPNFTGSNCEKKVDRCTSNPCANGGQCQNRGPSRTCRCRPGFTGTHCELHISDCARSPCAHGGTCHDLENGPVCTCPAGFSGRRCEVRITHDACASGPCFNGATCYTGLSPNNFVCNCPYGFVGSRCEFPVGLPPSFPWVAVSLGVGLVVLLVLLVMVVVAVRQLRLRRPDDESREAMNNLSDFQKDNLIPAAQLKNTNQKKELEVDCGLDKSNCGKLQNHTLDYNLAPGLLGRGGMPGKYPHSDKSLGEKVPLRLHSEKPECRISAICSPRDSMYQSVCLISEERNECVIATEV

[9] = target: T9, human DLL4 overexpressed on cells (human, UniProt Q9NR61 27-685); assay: FMAT, labelled hNotch1-Fc on CHO-hDLL4, periplasmic extract
T9 construct: full length human DLL4 on CHO or HEK293 cells; also called CHO-hDLL4; CHO-hDII4
Excerpt: as §2

[10] = target: T10, human DLL1 (human, UniProt O00548 18-545, limits assumed); assay: binding ELISA on coated recombinant human DLL1, OD 405 nm
T10 construct: also called hDLL1
T10 sequence (looked up): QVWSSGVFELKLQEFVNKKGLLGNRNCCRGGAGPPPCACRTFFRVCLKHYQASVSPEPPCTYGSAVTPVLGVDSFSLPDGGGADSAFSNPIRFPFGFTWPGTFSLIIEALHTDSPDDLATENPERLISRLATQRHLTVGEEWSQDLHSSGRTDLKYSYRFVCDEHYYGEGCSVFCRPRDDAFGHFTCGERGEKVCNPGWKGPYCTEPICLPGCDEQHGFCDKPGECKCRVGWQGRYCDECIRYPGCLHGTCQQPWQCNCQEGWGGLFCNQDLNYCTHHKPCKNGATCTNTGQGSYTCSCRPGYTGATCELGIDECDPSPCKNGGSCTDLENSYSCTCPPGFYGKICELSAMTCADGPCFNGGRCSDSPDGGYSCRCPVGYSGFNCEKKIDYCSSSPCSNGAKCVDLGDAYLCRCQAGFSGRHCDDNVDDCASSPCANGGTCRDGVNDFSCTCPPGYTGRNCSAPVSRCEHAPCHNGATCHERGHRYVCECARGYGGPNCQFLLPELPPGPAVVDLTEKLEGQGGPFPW
Procedure, shortened: (§3)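 Plates coated overnight at 4° C with 1 μg/mL ligand, blocked with 1% casein in PBS. VHH dilution series applied; bound VHH detected via mouse anti-myc then anti-mouse-AP conjugate.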

[11] = target: T7, recombinant human DLL4; assay: Biacore off-rate, periplasmic extract
[12] = target: T9, human DLL4 overexpressed on cells; assay: cell-based or functional assay
[13] = target: T9, human DLL4 overexpressed on cells; assay: FACS titration on HEK293-hDLL4 cells, MCF
Experimental: (§4) In order to determine the cynomologus cross-reactivity of the VHHs, a FACS binding experiment is performed. Cynomolgus DII4 expressing HEK293 cells (transient or stable transfection) are used for a titration binding experiment of the VHHs. After a 30 minutes incubation on ice, all samples are washed and detection is performed by applying anti-c-myc˜Alexa647 (Santa Cruz Biotechnology, Santa Cruz, Calif., USA). Human and mouse DII4 overexpressing HEK293 cells are taken as reference. The mean MCF value is determined on the FACS Array and used for calculation of the EC₅₀ value (see FIG. 9 A-E).

[14] = target: T11, cynomolgus DLL4 overexpressed on cells (cynomolgus, UniProt Q9NR61 27-685 (human entry)); assay: FACS titration on HEK293-cDLL4 cells, MCF
T11 construct: also called cyno DII4; cDLL4
T11 chain: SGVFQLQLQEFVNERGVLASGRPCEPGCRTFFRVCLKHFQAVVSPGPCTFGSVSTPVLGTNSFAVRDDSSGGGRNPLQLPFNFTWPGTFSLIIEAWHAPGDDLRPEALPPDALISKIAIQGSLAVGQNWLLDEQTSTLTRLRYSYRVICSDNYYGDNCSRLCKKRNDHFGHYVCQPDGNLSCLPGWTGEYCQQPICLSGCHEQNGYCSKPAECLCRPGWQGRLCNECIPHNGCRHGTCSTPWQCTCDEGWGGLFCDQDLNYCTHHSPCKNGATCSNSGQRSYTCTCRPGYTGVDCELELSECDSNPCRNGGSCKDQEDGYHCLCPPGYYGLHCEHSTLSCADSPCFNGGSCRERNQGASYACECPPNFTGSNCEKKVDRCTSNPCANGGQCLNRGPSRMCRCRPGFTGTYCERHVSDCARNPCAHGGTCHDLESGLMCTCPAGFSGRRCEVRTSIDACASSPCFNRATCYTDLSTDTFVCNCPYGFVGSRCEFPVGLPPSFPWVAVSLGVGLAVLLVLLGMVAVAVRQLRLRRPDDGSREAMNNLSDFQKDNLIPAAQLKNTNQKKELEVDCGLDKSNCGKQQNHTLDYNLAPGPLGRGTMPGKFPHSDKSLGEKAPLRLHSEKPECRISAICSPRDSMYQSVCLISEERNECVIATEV
Experimental: as §4

[15] = target: T7, recombinant human DLL4; assay: SPR Biacore T100, hDLL4 on chip; heterogeneous binding curve, no 1:1 fit
Experimental: Kinetic analysis to determine the affinity of the DII4-VHH interaction is performed by Surface Plasmon Resonance (SPR) on a Biacore T100 instrument. […] Purified VHHs or Fab fragment are injected for 2 minutes at different concentrations (between 10 and 300 nM) and allowed to dissociate for 20 min at a flow rate of 45 μl/min. Between sample injections, the surfaces are regenerated with 10 mM glycine pH1.5 and 100 mM HCl. HBS-N (Hepes buffer pH7.4) is used as running buffer. If possible, data are evaluated by fitting a 1:1 interaction model (Langmuir binding) onto the binding curves. The affinity constant KD is calculated from resulting association and dissociation rate constants (kₐ) and […].

[16] = target: T8, mouse DLL4 overexpressed on cells; assay: FMAT competition on CHO-mDLL4 cells; blocked ligand Alexa-647 labelled hNotch1-Fc
[17] = target: T12, human Jagged-1 (human, UniProt P78504 34-1067, limits assumed); assay: binding ELISA on coated recombinant human Jagged-1, OD 405 nm
T12 construct: also called hJagged-1; hJAG1
Procedure, shortened: as §3

[18] = target: T13, recombinant mouse DLL4 (mouse, UniProt Q9JI71 27-532); assay: binding ELISA on coated recombinant mouse DLL4, OD 405 nm
T13 construct: extracellular domain; also called rmDLL4; mDLL4
Experimental: (§5) In order to determine cross-reactivity to mouse DII4 a binding ELISA is performed. […] Wells are blocked with a casein solution (1% in PBS). VHHs are applied as dilution series and binding is detected using a mouse anti-myc (Roche) and an anti-mouse-AP conjugate (Sigma, St Louis, Mo., USA) (FIG. 7 A-H). As reference, binding to human DII4 is measured.

[19] = target: T9, human DLL4 overexpressed on cells; assay: competitive FMAT, hNotch1-Fc on CHO-hDLL4
[20] = target: T7, recombinant human DLL4; assay: competition ELISA, biot-hDLL4 to coated hNotch1-Fc
Excerpt: Residual binding of biotinylated human DII4 is detected using horseradish peroxidase (HRP) conjugated extravidin (Sigma, St. Louis, Mo., USA) (FIG. 3 A-C). Human DII4 is biotinylated as described above.

[21] = target: T7, recombinant human DLL4; assay: binding ELISA, coated rhDLL4
Experimental: as §5

T13 sequence (Q9JI71 27-532): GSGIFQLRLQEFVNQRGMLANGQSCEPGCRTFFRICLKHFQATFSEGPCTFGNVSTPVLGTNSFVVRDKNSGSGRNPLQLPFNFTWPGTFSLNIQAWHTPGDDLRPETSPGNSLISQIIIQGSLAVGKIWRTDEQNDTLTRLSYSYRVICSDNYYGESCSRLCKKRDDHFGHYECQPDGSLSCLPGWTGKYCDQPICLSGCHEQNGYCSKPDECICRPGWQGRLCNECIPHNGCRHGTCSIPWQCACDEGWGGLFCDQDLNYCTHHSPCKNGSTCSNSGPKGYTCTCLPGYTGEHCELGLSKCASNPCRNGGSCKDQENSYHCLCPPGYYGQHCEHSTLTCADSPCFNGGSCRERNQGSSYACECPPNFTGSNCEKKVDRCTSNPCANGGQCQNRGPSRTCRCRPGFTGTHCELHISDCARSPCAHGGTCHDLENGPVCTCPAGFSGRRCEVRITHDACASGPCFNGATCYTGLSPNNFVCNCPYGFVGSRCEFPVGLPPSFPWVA

binding result [1]: no binding (tested: 5e-7 M) | binding result [2]: no binding (tested: 5e-7 M) | binding result [3]: no binding (tested: 5e-7 M) | binding result [4]: no binding (tested: about 5e-7 M)
B1: VEGFBII010 (VHH)
chain: EVQLVESGGGLVQTGDSLRLSCEVSGRTFSSYSMGWFRQAQGKEREFVVAISKGGYKYDSVSLEGRFTISKDNAKNTVYLQINSLKPEDTAVYYCASSRAYGSSRLRLADTYEYWGQGTQVTVSSGGGGSGGGGSGGGGSGGGGSGGGGSGGGGSGGGGSEVQLVESGGGLVQTGDSLRLSCEVSGRTFSSYSMGWFRQAQGKEREFVVAISKGGYKYDSVSLEGRFTISKDNAKNTVYLQINSLKPEDTAVYYCASSRAYGSSRLRLADTYEYWGQGTQVTVSS
notes: homodimeric bivalent VHH; also called VEGFBII23B04-35GS-23B04

IC50 (read off the curve) [5]: ~2 nM | IC50 (read off the curve) [6]: ~4 nM
B2: human Notch1/Fc chimera (R&D Systems) (Fc fusion, UniProt P46531 19-526, looked up, not shown: a dimerising Fc or GST)
chain: ARGPRCSQPGETCLNGGKCEAANGTEACVCGGAFVGPRCQDPNPCLSTPCKNAGTCHVVDRRGVADYACSCALGFSGPLCLTPLDNACLTNPCRNGGTCDLLTLTEYKCRCPPGWSGKSCQQADPCASNPCANGGQCLPFEASYICHCPPSFHGPTCRQDVNECGQKPGLCRHGGTCHNEVGSYRCVCRATHTGPNCERPYVPCSPSPCQNGGTCRPTGDVTHECACLPGFTGQNCEENIDDCPGNNCKNGGACVDGVNTYNCRCPPEWTGQYCTEDVDECQLMPNACQNGGTCHNTHGGYNCVCVNGWTGEDCSENIDDCASAACFHGATCHDRVASFYCECPHGRTGLLCHLNDACISNPCNEGSNCDTNPVNGKAICTCPSGYTGPACSQDVDECSLGANPCEHAGKCINTLGSFECQCLQGYTGPRCEIDVNECVSNPCQNDATCLDQIGEFQCICMPGYEGVHCEVNTDECASSPCLHNGRCLDKINEFQCECPTGFTGHLCQ
modifications: Alexa-647 labelled in the FMAT assay
notes: also called hNotch1-Fc; rhNotch1/Fc

IC50 (nM) (experiment 1), DLL4 proliferation assay (HUVEC) [7]: 103 nM | IC50 (nM) (experiment 2), DLL4 proliferation assay (HUVEC) [7]: 32 nM | % inh [8]: 86% | % inh [9]: 94% | binding result [10]: no binding (tested: 5e-7 M) | koff [11]: 0.0012 s⁻¹ | IC50, DLL4/Notch1 reporter assay [12]: 964 nM | EC50 (read off the curve) [13]: ~4 nM | EC50 (read off the curve) [14]: ~5 nM | Kd [15]: 4 to 24 nM | koff [15]: 0.0006 to 0.003 s⁻¹ | kon [15]: 120000 to 150000 M⁻¹ s⁻¹ | IC50 (read off the curve) [16]: ~60 nM | binding result [17]: no binding (tested: 5e-7 M) | binding result [18]: no binding (tested: 5e-7 M) | IC50 [19]: 2.5 nM | IC50 [20]: 1.1 nM | EC50 [21]: 8.4 nM
B3: DLLBII104G01 (VHH)
VHH: EVQLVESGGGLVQAGGSLRLSCAASGFTFDDYAIGWFRQAPGKEREGVSCISSSDGSTYYADSVKGRFTISSDNAKNTVYLQMNSLKPEDTAVYYCATAWCDSSWYRSFVGYWGQGTQVTVSS
notes: also called 104G1
